T1: hiR2-FL-K536-T7 (deletion of K536) (human, UniProt Q6PJF5 1-856)
T1 construct: single amino acid deletion
T1 sequence: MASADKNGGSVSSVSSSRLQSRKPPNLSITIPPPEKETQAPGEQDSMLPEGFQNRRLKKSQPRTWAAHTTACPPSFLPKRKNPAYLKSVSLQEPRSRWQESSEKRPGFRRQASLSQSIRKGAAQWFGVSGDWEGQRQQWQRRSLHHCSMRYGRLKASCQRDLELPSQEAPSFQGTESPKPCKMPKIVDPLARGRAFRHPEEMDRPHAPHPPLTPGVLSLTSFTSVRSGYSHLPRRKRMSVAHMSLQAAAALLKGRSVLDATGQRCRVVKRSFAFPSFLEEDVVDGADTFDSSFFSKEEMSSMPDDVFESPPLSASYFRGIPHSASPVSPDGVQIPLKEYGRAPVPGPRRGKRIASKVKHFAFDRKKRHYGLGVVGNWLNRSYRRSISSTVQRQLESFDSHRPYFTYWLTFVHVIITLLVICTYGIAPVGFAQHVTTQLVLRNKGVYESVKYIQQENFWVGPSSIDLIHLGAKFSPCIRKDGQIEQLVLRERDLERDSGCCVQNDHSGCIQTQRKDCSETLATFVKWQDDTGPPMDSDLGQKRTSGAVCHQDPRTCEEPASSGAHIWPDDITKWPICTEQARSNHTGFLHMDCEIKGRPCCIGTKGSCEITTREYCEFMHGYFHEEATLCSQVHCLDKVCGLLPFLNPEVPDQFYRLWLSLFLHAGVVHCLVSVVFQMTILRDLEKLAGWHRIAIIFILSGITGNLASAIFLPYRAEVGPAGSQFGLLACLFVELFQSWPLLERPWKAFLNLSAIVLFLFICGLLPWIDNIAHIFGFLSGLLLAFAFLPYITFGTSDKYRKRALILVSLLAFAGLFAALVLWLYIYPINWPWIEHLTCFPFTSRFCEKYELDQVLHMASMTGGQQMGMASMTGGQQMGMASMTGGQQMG

B1: antibody 5 (antibody, V domains shown)
VH: QVTLKESGPGILQPSQTLSLTCSFSGFSLSTFGMGVGWIRQPSGKGLEWLAHIWWDDEKYYNSALKSRLTISKATSKNQAFLKIANVDTADTATYYCARISNYGSNYWYFNVWGTGTTVTVSS
VL: QVVLTQSPALMSASPGEKVTMTCSAGSSVSCMYWYQQKPGSSPRVLIYDTSNLASGVPARFTGSGSGTSYSLTISRMEAEDAASYYCQQWNSYPLTFGAGTKLELK
notes: mouse IgG, kappa light chain; also called clone #5; purified antibody 5
B2: antibody 42 (antibody, V domains shown)
VH: B1 VH with F24L, M34R, S63P, A74D, A80V, K83R, S101Q, N111D
VL: LIVLTQSPAIMSASPGEKVTMTCGATSRISYMFWYQQKPGSSPRVLIYDTSNLASGVPVRFSGSGSGTSYSLTISRVEAEDVATYYCQQWNSYPLTFGAGTKLELK
notes: mouse IgG, kappa light chain; also called clone #42; purified antibody 42
B3: antibody 43 (antibody, V domains shown)
VH: B1 VH with T3A, P42S, H52N, E58D, S63P, A74D, T75A, S101G, N111D
VL: B2 VL with L1Q, K18R, G24S, T26N, F33Y, V45L, V77M, V82A, Y86N, N91S
notes: mouse IgG, kappa light chain; also called clone #43; purified antibody 43
B4: antibody 44 (antibody, V domains shown)
VH: B1 VH with G44E, E58D, S63P, A74D, A80I, A85T, D91E, A98S, S101G, N111D
VL: QIVLTQSPAVMSASPGEKVTMTCTASSSVYYMYWYQQTPGSSPRLLIYDTSNLASGVPVRFSGSGSGTSYSLTISRMEAEDAATYYCQQWNTYPLTFGAGTKLELK
notes: mouse IgG, kappa light chain; also called clone #44; purified antibody 44
B5: antibody 22 (antibody, V domains shown)
VH: B1 VH with A80V
VL: B1 VL with C31Y, S84T
notes: mouse IgG, kappa light chain; also called clone #22; purified antibody 22
B6: antibody 34 (antibody, V domains shown)
VH: QVTLKESGPGILQPSQTLSLTCSFSGFSLSTFSLGVGWIRQSSGKGLEWLAHIWWDDEKYYNPALKSRLTISKDTSKNQVFLKIANVDAADTATYYCARAYYSKSYYALDYWGQGTSVTVSS
VL: DIQMTQSPSSLSASLGERVSLTCRASQEISGYLSWLQQKPDGTIKRLIYAASTLDSGVPKRFSGSRSGSDYSLAISSLESEDFADYYCLQYANFPFTFGSGTKLEIK
notes: mouse IgG, kappa light chain; also called clone #34; purified antibody 34
B7: antibody 16 (antibody, V domains shown)
VH: QVTLKESGPGILQPSQTLSLTCSFSGFSLSTFALGVGWIRQPSGRGLEWLAHIWWDDDKYYNPALKSRLTISKDTSKNHVFLKIANVDTADTATYYCARITTYYYGMDYWGQGTSVTVSS
VL: DIVLSQSPATLSVTPGDSVSLFCRASQSIGNHLHWYQQESHASPRLLIKYASQSISGIPSRFSGSGSGTDFTLSINSVETEDFGMYFCQQSYNWPLTFGAGTKLELK
notes: mouse IgG, kappa light chain; also called clone #16; purified antibody 16
B8: antibody 3 (antibody, V domains shown)
VH: QVTLKESGPGILQPSQTLSLTCSFSGFSLTTFAMGIGWVRQPSGKGLEWLAHIWWDGEKYNNPVLKSRLTISKDTSKNQVFLRIANVDTPDTATYYCARISSIYYIIDNWGQGTSVTVSS
VL: B7 VL with S5T, D17H, F22S, G30S, H32N, Q38K, E39K, A42E, A51V
notes: mouse IgG, kappa light chain; also called clone #3; purified antibody 3

Changes are numbered by the printed parent chain. Where only a bound is given, the exact number is not on record here.

Consider 8 molecules from patent publication US20240287172A1 (SCIRHOM, published 2024).

This assay concerns the target T1, hiR2-FL-K536-T7 (deletion of K536). Kind of assay: FACS, MEF-DKO cells, 3 µg/ml. The source says: In brief, immortalized MEF-DKO-hiR2-FL-G498A-T7, MEF-DKO-hiR2-FL-Q502R-T7, MEF-DKO-hiR2-FL-I509V-T7, MEF-DKO-hiR2-FL-Q512S-T7, MEF-DKO-hiR2-FL-R513E-T7, MEF-DKO-hiR2-FL-K514E-T7, MEF-DKO-hiR2-FL-D515E-T7, MEF-DKO-hiR2-FL-E518S-T7, MEF-DKO-hiR2-FL-T522V-T7, MEF-DKO-hiR2-FL-F523W-T7, MEF-DKO-hiR2-FL-Q527P-T7, MEF-DKO-hiR2-FL-D528I-T7, MEF-DKO-hiR2-FL-D529H-T7, MEF-DKO-hiR2-FL-T530P-T7, MEF-DKO-hiR2-FL-G531S-T7, MEF-DKO-hiR2-FL-P532A-T7, MEF-DKO-hiR2-FL-M534-T7, MEF-DKO-hiR2-FL-D535-T7, MEF-DKO-hiR2-FL-K536-T7, MEF-DKO-hiR2-FL-S537E-T7, MEF-DKO-hiR2-FL-D538L-T7, MEF-DKO-hiR2-FL-L539A-T7, MEF-DKO-hiR2-FL-Q541H-T7, MEF-DKO-hiR2-FL-T544Q-T7, MEF-DKO-hiR2-FL-S545F-T7, MEF-DKO-hiR2-FL-A547S-T7, MEF-DKO-hiR2-FL-T555V-T7, MEF-DKO-hiR2-FL-E557D-T7, MEF-DKO-hiR2-FL-A560S-T7 and MEF-DKO-hiR2-FL-S562E-T7 cells were harvested with 10 mM EDTA in PBS, washed and resuspended in FACS buffer (PBS, 3% FBS, 0.05% sodium azide), and seeded in Nunc U-bottom 96-well plates (Thermo Fisher Scientific, USA) at approximately 3×10⁵ cells per well. To pellet cells and remove supernatants, the plates were centrifuged at 1,500 rpm and 4° C. for 3 minutes. For primary staining, cells were resuspended in 100 μl per well of either FACS buffer alone (controls) or the purified antibodies 3, 5, 16, 22, 34, 42, 43, 44, 48, and 50 of the invention at 3 μg/ml in FACS buffer and incubated on ice for 1 hour. Afterwards, plates were centrifuged at 1,500 rpm and 4° C. for 3 minutes and washed twice with 200 μl per well of FACS buffer. For secondary staining, cells were spun down and resuspended in 100 μl per well of PE-conjugated goat anti-mouse IgG F(ab′)2 detection fragment (Dianova, Germany) diluted 1:100 in FACS buffer. Protected from light, the cell suspensions were incubated on ice for 1 hour. Plates were then centrifuged at 1,500 rpm and 4° C. for 3 minutes and washed three times with 200 μl per well of FACS buffer. Finally, cells were resuspended in 150 μl per well of FACS buffer and analyzed using a BD Accuri™ C6 Plus flow cytometer (Becton Dickinson, Germany).
Background: A flow cytometer gives signals particle by particle.
With B1, the “loss of binding vs wild type” value is at least 95%.
For B2 the value was at least 95%; for B3, at least 95%; for B4, at least 95%.
Regarding B5, the “loss of binding vs wild type” value is at least 95%.
For B6, the “loss of binding vs wild type” value was at least 95%.
For B7 the value was at least 95%; for B8, at least 95%.
